Assay results taken from US7067473.

Columns and labels:
[1] = target: recombinant enovin (mature Enovin with NH2-terminal 6x His-tag, expressed from hEVNmat/pRSETB in E. coli BL21(DE3), refolded) (human); experiment: SPR (BIAcore 3000, 25 °C), enovin immobilised, soluble GFRα3-Fc as analyte, three concentrations
[2] = target: recombinant enovin (mature Enovin with NH2-terminal 6x His-tag, expressed from hEVNmat/pRSETB in E. coli BL21(DE3), refolded) (human); experiment: SPR (BIAcore 3000, 25 °C), enovin immobilised, soluble GFRα3-Fc as analyte; KD calculated as kd/ka

B1: soluble GFRα-3 IgG-Fc fusion protein (GFRα-3 amino acids 28 to 371 fused to human IgG1-Fc) (Fc fusion, UniProt O60609 28-371, looked up, not shown: a dimerising Fc or GST)
chain: LAAGDPLPTESRLMNSCLQARRKCQADPTCSAAYHHLDSCTSSISTPLPSEEPSVPADCLEAAQQLRNSSLIGCMCHRRMKNQVACLDIYWTVHRARSLGNYELDVSPYEDTVTSKPWKMNLSKLNMLKPDSDLCLKFAMLCTLNDKCDRLRKAYGEACSGPHCQRHVCLRQLLTFFEKAAEPHAQGLLLCPCAPNDRGCGERRRNTIAPNCALPPVAPNCLELRRLCFSDPLCRSRLVDFQTHCHPMDILGTCATEQSRCLRAYLGLIGTAMTPNFVSNVNTSVALSCTCRGSGNLQEECEMLEGFFSHNPCLTEAIAAKMRFHSQLFSQDWPHPTFAVMAHQ
- koff [1]: 0.000508 s⁻¹
- kon [1]: 165000 M⁻¹ s⁻¹
- Kd [2]: 3.1 nM
